Measurements: US20240229045, “APTAMER FOR SPECIFICALLY RECOGNIZING SOLUBLE ST2 PROTEIN AND APPLICATION OF THE SAME” (BEIJING INSTITUTE OF HEART, LUNG AND BLOOD VESSEL DISEASES, published 2024)

Tests used:
[1] = target: T1, soluble ST2 (sST2, IL1RL1 soluble isoform) (Homo sapiens, UniProt Q01638-2 Q01638-2:19-328); assay: fiber-optic fluorescence, sST2 immobilised; 137 mM NaCl, 2.7 mM KCl, phosphate
[2] = target: T1, soluble ST2 (sST2, IL1RL1 soluble …); assay: EMSA; strong binding; room temperature 30 min
Experimental: According to the experimental formula shown in Table 4, the aptamer was added to the buffer solution and nuclease-free water, heated at 95° C. for 10 minutes, quenched on ice for 10 minutes, and room temperature for 10 minutes.
The above DNA solution and sST2 protein were slowly mixed to a final volume of 20 μL, and a sample containing only aptamer and no protein was used as a negative control, and incubated with rotation at room temperature for 30 minutes.

T1 sequence (Q01638 other isoform, or with tags, fused parts or gaps): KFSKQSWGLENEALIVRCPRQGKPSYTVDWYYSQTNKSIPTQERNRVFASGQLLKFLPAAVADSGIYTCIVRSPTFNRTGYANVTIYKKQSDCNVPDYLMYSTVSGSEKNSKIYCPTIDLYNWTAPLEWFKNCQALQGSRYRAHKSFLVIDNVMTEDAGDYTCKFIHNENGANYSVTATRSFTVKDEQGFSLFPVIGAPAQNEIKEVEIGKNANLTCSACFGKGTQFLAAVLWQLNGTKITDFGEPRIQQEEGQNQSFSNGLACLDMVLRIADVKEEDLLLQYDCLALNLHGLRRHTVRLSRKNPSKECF

Binder	Kd [1] [nM]	binding result [2]
TCCATCCACTCGGGGCGGGGGCTCGTGCTCTATTTC (ssDNA) [Apt4]	127	–
TCCATCCACTCGGGGCTAGAAGCCGTGAGAATCTG (ssDNA) [Apt1]	–	binds
TCCATCCACTCGGGCCCTAGGGCGTGTATGTCCAT (ssDNA) [Apt2]	–	binds
TCCATCCACTCGGCCTACTAAGGGTTTCGTTCACC (ssDNA) [Apt3]	–	binds
TCCATCCACTCGGCGCCACGCGGTTTCTCCAGATT (ssDNA) [Apt8]	–	binds
